Assays:
HeLa Tet3G cells = assay: Total NAD+/NADH ratio by HPLC; assay type: cell-based, human; settings: doxycycline-inducible expression
Description: One million HeLa Tet3G Luciferase, LbNOX or mitoLbNOX cells were seeded per a 10 cm plate in 10 ml of DMEM (DMEM (US Biological, D9800), 3.7 g/L NaHCO3, 10% dialyzed FBS (Life Technologies, 26400-044)). Twenty four hours and 1 hour before extraction, media was exchanged to 10 ml of DMEM without pyruvate (DMEM (US Biological, D9802), 15.9 mg/L phenol red, 3.7 g/L NaHCO3, 10% dialyzed FBS (Life Technologies, 26400-044)) with or without 300 ng/ml doxycycline. The media that was used 1 hour before extraction was preincubated overnight in tissue culture incubator without cells. Media was quickly aspirated, cells rinsed with 15 ml of ice-cold PBS, transferred to dry ice and 4 ml of dry ice cold solution of 80% methanol: 20% water (spiked with 5 μM Sodium L-Lactate-3,3,3-D3 and 0.2 μM Sodium [3-^13C]Pyruvate) was added and quickly spread around by tilting the plate. The whole procedure from aspiration of media to adding 80% methanol solution took about ˜15 seconds. The plate was transferred on dry ice to −80° C. freezer and incubated for 15 min. […]
Metabolites were analyzed by ion exchange chromatography using μBondapak NH2 300×3.9-mm column (Waters, WAT084040) attached to Agilent 1260 HPLC system. […] Absorbance was monitored at […] for NADH. […] Energy charge calculated ([ATP]+0.5 [ADP])/([ATP]+[ADP]+[AMP]) was usually ˜0.95.

HeLa cells = assay: Tolerability of doxycycline-inducible expression in HeLa cells; assay type: cell-based, human
Source text: Lentiviral infection was used to generate HeLa cells that expressed untargeted or mitochondria-targeted TPNOX (referred to as TPNOX and mitoTPNOX, respectively) under the control of a doxycycline-inducible promoter (TRE3G) (FIG. 16A).

[1] = Enzymatic assay of NAD(P)H oxidase activity, NADPH as substrate (Michaelis-Menten analysis); assay type: biochemical
Description: TPNOX is highly specific towards NADPH (e.g., approximately 1120 fold more reactive with NADPH than with NADH based on respective kat/KM values).
Recombinant LbNOX activity was monitored by following the decrease of the absorbance of NAD(P)H at […] using CARY® 100 spectrophotometer (Agilent, CA). A typical reaction mixture contained 2 μM FAD in 0.5 ml of the assay buffer (50 mM Na2HPO4, pH 7.5, 150 mM NaCl) and was incubated for 4 min at 37° C. before NAD(P)H (2-600 μM) and enzyme (0.08-6.8 μg) were added. Extinction coefficient (ε340=6.2 mM^−1 cm^−1) was used to calculate NAD(P)H oxidase activity. Simultaneous monitoring of oxygen consumption and NADH fluorescence was performed using a custom-built fluorimeter. In our setup the REDEYE™ oxygen patch (OceanOptics) was installed in a cuvette and the optical probe was connected to a fluorimeter. Oxygen causes quenching of the REDEYE™ patch fluorescence which allows to monitor the partial pressure of oxygen. In our experiments 0.5 ml of the assay buffer was preincubated at 28° C. before NADH (40-1500 μM) and LbNOX (0.1-2 μg) were added.

Molecule	effect on total NAD+/NADH ratio (HeLa Tet3G cells)	tolerability of expression (cell morphology, viability, proliferation) (HeLa cells)	kcat with NADPH [1] [s⁻¹]	Km ([1]; recombinant enzyme) [µM]
LbNOX: water-forming NADH oxidase endogenous to Lactobacillus brevis; tested with C-terminal FLAG tag (protein, listed as Lactobacillus brevis, C-terminal FLAG tag) KVTVVGCTHAGTFAIKQILAEHPDAEVTVYERNDVISFLSCGIALYLGGKVADPQGLFYSSPEELQKLGANVQMNHNVLAIDPDQKTVTVEDLTNHAQTTESYDKLVMTSGSWPIVPKIPGIDSDRVKLCKNWAHAQALIEDAKEAKRITVIGAGYIGAELAEAYSTTGHDVTLIDAMARVMPKYFDADFTDVIEQDYRDHGVQLALGETVESFTDSATGLTIKTDKNSYETDLAILCIGFRPNTDLLKGKVDMAPNGAIITDDYMRSSNPDIFAAGDSAAVHYNPTHQNAYIPLATNAVRQGILVGKNLVKPTVKYMGTQSSSGLALYDRTIVSTGLTLAAAKQQGLNAEQVIVEDNYRPEFMPSTEPVLMSLVFDPDTHRILGGALMSKYDVSQSANTLSVCIQNENTIDDLAMVDMLFQPNFDRPFNYLNILAQAAQAKVAQSVNA	did not have a significant effect			
TPNOX: NADPH-specific quintuple mutant (G159A/D177A/A178R/M179S/P184R) of LbNOX (protein) KVTVVGCTHAGTFAIKQILAEHPDAEVTVYERNDVISFLSCGIALYLGGKVADPQGLFYSSPEELQKLGANVQMNHNVLAIDPDQKTVTVEDLTNHAQTTESYDKLVMTSGSWPIVPKIPGIDSDRVKLCKNWAHAQALIEDAKEAKRITVIGAGYIAAELAEAYSTTGHDVTLIARSARVMRKYFDADFTDVIEQDYRDHGVQLALGETVESFTDSATGLTIKTDKNSYETDLAILCIGFRPNTDLLKGKVDMAPNGAIITDDYMRSSNPDIFAAGDSAAVHYNPTHQNAYIPLATNAVRQGILVGKNLVKPTVKYMGTQSSSGLALYDRTIVSTGLTLAAAKQQGLNAEQVIVEDNYRPEFMPSTEPVLMSLVFDPDTHRILGGALMSKYDVSQSANTLSVCIQNENTIDDLAMVDMLFQPNFDRPFNYLNILAQAAQAKVAQSVNA		safely tolerated	268 ± 4	22 ± 2

Reference: patent US11866736B2, “Protein prostheses for mitochondrial diseases or conditions” (The General Hospital Corporation, priority 2015, dated 2024)
